Source: patent US20240294945A1

How the values were obtained:
Assay in all cases: cell-based or functional assay
[1] = target: TALE-free DddAtox half G1333-C (Burkholderia cenocepacia) (UniProt P0DUH5)
[2] = target: right-TALE:G1333-C, mtND1-targeted DdCBE subunit (Burkholderia cenocepacia)
[3] = target: right-TALE:G1397C (the C-terminal G1397 DddAtox half fused to the C-terminus of the right-TALE array (Burkholderia cenocepacia))
[4] = target: TALE-free DddAtox half G1397-C (Burkholderia cenocepacia)
[5] = target: TALE-free DddAtox half G1333-N (Burkholderia cenocepacia) (UniProt P0DUH5)
[6] = target: TALE-free DddAtox half G1397-N (Burkholderia cenocepacia) (UniProt P0DUH5)

## left-TALE:G1333-N, mtND1-targeted DdCBE subunit
[1]
  base editing efficiency at position C8 of the mtND1 target, HEK293T: 32.7%
[2]
  base editing efficiency at position C8 of the mtND1 target, HEK293T: 56.1%

## left-TALE:G1397N (the N-terminal G1397 DddAtox half fused to the C-terminus of the left-TALE array),
[3]
  cytosine-to-thymine editing efficiency at C11 of the mtND1 target, HEK293T: 60.7%
[4]
  base editing efficiency at the mtND1 target, HEK293T: 31%

## right-TALE:G1333-C, mtND1-targeted DdCBE subunit
[5]
  base editing efficiency at position C8 of the mtND1 target, HEK293T: 18.1%

## right-TALE:G1397C (the C-terminal G1397 DddAtox half fused to the C-terminus of the right-TALE array
[6]
  base editing efficiency at the mtND1 target, HEK293T: 8.1%
